In patent publication US20220119490A1 (Genentech, published 2022):
Values belong to the binder of their own block, whether it stands above or below them.

B4: LILRB1 extracellular domain (receptor, human, UniProt Q8NHL6 24-461, looked up)
chain: GHLPKPTLWAEPGSVITQGSPVTLRCQGGQETQEYRLYREKKTALWITRIPQELVKKGQFPIPSITWEHAGRYRCYYGSDTAGRSESSDPLELVVTGAYIKPTLSAQPSPVVNSGGNVILQCDSQVAFDGFSLCKEGEDEHPQCLNSQPHARGSSRAIFSVGPVSPSRRWWYRCYAYDSNSPYEWSLPSDLLELLVLGVSKKPSLSVQPGPIVAPEETLTLQCGSDAGYNRFVLYKDGERDFLQLAGAQPQAGLSQANFTLGPVSRSYGGQYRCYGAHNLSSEWSAPSDPLDILIAGQFYDRVSLSVQPGPTVASGENVTLLCQSQGWMQTFLLTKEGAADDPWRLRSTYQSQKYQAEFPMGPVTSAHAGTYRCYGSQSSKPYLLTHPSDPLELVVSGPSGGPSSPTTGPTSTSGPEDQPLTPTGSDPQSGLGRHLGV
notes: extracellular domain; also called leukocyte immunoglobulin-like receptor subfamily B member 1

Legend:
[1] = molecular target: T1, LILRB4 expressed on cells (human, UniProt Q8NHJ6 22-448); assay: cell surface interaction assay: ECD tetramer on transfected cells (FIG. 5N)
T1 construct: whole, on cells; C-terminally tagged in the co-IP; also called LILRB4-FLAG

[2] = molecular target: T2, LDLR extracellular domain (human, UniProt P01130 22-788); assay: as above
T2 construct: extracellular domain; Soluble query, streptavidin tetramer; also called low-density lipoprotein receptor

[3] = molecular target: T3, CD177 extracellular domain (human, UniProt Q8N6Q3 22-408, limits assumed); assay: SPR, fit to equilibrium; CD177 ECD immobilized, monomeric Avi-tagged PDPN ectodomain as analyte
T3 construct: extracellular domain; ECD-gD-GPI on COS-7 cells in the screen; recombinant ECD in SPR and CAF assays; streptavidin tetramer in organoid cultures; also called NB1; PRV1
T3 sequence (looked up): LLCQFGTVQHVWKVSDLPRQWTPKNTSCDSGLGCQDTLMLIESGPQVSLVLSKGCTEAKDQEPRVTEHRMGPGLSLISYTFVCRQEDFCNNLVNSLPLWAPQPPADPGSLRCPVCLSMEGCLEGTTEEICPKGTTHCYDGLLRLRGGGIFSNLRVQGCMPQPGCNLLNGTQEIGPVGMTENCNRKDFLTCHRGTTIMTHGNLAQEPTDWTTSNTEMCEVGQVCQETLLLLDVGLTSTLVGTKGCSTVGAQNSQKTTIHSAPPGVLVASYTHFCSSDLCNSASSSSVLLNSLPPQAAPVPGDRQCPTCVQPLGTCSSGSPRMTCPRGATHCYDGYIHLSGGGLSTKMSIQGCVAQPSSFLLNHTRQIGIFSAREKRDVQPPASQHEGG
Procedure: (§1) SPR was measured using a Proteon XPR36 Instrument (Biorad) or a Biacore 3000 (GE Healthcare). […] Bulk refractive index changes were removed by substrating a reference flow response. For KD calculations, 300-400 resonance units were immobilized, and kinetic data were fit to equilibrium or a Langmuir model to calculate kinetic parameters for CD177 and CLEC-2 binding, respectively. […] All sensorgrams were analyzed with BiaEvaluation 4.1 (Biacore) or Proteon Manager 3.1.0.6 (Proteon) software.

[4] = molecular target: T4, CLEC-2 extracellular domain (human, UniProt Q9P126 55-229); assay: SPR, Langmuir model; CLEC-2 ECD immobilized, monomeric Avi-tagged PDPN ectodomain as analyte
T4 construct: extracellular domain; Recombinant ECD in SPR and CAF assays; streptavidin tetramer in organoid cultures; also called CLEC1B; rCLEC-2
Procedure: as §1

IL6R expressed on cells = molecular target: T5, IL6R expressed on cells (human, UniProt P08887 20-468); assay: cell surface interaction assay: soluble multimerized LILRB on transfected cells
T5 construct: whole, on cells; C-terminally tagged in the co-IP; also called IL6R-HA
T5 sequence (looked up): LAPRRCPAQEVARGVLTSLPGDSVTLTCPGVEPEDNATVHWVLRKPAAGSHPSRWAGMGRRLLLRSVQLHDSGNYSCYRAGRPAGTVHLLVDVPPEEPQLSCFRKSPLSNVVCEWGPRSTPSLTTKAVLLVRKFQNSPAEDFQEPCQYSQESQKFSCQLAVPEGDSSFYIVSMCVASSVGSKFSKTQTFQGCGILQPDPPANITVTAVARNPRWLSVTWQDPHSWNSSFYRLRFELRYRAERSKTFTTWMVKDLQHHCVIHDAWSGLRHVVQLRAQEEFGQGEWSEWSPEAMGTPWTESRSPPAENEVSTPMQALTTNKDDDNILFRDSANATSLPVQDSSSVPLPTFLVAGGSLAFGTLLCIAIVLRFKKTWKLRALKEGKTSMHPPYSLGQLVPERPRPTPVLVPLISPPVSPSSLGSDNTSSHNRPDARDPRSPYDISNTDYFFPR

FLT4 expressed on cells = molecular target: T6, FLT4 expressed on cells (human, UniProt P35916 25-1363); assay: as above
T6 construct: whole, on cells; also called VEGFR3; vascular endothelial growth factor receptor 3

[5] = molecular target: B4; assay: as above
[6] = molecular target: T7, EPHA3 extracellular domain (human, UniProt P29320 21-541); assay: SPR, LILRA3 ECD-Fc immobilized, ECD-Fc analytes at 250 nM
T7 construct: extracellular domain; ECD construct; also called ephrin type-A receptor 3
T7 sequence (looked up): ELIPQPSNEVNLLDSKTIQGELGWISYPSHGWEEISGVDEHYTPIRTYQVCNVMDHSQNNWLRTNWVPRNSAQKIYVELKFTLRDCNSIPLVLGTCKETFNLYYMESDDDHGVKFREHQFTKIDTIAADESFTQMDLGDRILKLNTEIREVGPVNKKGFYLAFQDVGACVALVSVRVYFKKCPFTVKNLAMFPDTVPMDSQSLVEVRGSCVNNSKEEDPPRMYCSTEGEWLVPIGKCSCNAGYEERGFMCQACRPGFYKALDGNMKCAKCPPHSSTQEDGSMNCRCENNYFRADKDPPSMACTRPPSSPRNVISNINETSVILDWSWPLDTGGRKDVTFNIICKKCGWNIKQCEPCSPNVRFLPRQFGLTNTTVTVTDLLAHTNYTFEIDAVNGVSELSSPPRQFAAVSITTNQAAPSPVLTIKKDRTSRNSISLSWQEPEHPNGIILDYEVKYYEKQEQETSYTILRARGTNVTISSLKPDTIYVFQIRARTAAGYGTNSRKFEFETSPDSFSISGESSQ
Description: (§2) An irrelevant Fc-tagged protein was used as a control. Sensorgram shown is representative of at least 3 independent runs.

EPHA5 = molecular target: T8, EPHA5 (human, UniProt P54756); assay: as above
T8 construct: extracellular domain; analyte at 250 nM on immobilized LILRA3
Description: as §2

LDLR expressed on cells = molecular target: T9, LDLR expressed on cells (human, UniProt P01130 22-860); assay: cell surface interaction assay: soluble multimerized LILRB on transfected cells
T9 construct: whole, on cells
T9 sequence (P01130 22-860): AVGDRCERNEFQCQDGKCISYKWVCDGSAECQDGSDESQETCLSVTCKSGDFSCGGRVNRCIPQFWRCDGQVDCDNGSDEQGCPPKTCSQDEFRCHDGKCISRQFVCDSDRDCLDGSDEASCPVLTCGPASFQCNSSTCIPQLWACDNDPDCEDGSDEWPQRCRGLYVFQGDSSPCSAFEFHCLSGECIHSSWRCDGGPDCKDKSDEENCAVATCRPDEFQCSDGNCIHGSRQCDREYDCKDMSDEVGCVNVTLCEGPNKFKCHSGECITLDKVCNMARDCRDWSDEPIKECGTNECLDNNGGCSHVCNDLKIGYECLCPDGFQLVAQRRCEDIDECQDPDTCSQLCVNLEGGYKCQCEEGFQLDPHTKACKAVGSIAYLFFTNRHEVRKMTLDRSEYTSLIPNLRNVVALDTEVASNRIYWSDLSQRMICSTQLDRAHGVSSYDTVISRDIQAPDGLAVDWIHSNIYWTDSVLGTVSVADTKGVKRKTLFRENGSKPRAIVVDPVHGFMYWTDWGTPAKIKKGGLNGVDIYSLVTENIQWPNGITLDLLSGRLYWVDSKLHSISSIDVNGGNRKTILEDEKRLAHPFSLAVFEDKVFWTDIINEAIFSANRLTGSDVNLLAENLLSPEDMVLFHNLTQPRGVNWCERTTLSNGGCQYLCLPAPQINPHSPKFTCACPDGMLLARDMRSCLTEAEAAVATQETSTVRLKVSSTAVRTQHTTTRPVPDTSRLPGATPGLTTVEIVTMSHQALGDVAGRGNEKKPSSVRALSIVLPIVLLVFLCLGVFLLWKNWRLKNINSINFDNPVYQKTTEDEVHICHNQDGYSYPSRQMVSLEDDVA

T2 sequence (P01130 22-788): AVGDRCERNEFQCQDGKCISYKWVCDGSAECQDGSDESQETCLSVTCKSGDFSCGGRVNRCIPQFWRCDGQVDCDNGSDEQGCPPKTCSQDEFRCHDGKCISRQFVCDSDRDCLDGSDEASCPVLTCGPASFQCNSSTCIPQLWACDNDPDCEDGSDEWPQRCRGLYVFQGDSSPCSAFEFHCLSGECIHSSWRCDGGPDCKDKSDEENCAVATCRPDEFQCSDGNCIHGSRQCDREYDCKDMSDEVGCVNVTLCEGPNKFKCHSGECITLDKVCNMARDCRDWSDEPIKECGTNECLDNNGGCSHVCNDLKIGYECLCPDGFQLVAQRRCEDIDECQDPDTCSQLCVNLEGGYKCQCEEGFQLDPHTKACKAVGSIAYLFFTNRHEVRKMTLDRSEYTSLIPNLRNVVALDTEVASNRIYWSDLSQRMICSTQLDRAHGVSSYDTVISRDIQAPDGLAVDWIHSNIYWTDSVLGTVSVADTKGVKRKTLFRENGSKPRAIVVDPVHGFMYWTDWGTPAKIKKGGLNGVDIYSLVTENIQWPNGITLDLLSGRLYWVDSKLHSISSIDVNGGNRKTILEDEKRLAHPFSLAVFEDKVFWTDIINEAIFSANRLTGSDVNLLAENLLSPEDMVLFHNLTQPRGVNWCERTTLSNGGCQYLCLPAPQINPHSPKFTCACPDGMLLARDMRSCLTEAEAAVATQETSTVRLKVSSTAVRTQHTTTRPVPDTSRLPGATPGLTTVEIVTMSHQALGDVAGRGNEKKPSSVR
T8 sequence (P54756 25-573): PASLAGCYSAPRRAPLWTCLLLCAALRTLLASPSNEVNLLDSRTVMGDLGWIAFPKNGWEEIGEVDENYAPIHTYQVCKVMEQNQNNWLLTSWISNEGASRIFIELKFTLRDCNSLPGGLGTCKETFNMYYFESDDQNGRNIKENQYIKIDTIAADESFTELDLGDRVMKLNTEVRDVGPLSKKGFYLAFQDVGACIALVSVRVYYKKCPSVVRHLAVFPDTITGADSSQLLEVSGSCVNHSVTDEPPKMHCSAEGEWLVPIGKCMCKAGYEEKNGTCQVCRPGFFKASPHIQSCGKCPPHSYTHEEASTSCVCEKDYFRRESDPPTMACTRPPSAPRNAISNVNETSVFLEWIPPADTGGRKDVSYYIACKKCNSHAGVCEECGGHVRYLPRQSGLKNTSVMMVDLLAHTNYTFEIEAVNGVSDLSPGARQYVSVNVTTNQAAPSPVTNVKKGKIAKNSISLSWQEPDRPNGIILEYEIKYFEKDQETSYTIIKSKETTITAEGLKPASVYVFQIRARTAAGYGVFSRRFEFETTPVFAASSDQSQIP
T4 sequence (Q9P126 55-229): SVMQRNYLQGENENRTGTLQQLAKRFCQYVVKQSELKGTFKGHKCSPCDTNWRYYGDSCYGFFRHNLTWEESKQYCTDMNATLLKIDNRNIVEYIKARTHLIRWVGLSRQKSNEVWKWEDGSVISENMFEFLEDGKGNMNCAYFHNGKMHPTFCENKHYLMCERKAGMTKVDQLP
T6 sequence (P35916 25-1363): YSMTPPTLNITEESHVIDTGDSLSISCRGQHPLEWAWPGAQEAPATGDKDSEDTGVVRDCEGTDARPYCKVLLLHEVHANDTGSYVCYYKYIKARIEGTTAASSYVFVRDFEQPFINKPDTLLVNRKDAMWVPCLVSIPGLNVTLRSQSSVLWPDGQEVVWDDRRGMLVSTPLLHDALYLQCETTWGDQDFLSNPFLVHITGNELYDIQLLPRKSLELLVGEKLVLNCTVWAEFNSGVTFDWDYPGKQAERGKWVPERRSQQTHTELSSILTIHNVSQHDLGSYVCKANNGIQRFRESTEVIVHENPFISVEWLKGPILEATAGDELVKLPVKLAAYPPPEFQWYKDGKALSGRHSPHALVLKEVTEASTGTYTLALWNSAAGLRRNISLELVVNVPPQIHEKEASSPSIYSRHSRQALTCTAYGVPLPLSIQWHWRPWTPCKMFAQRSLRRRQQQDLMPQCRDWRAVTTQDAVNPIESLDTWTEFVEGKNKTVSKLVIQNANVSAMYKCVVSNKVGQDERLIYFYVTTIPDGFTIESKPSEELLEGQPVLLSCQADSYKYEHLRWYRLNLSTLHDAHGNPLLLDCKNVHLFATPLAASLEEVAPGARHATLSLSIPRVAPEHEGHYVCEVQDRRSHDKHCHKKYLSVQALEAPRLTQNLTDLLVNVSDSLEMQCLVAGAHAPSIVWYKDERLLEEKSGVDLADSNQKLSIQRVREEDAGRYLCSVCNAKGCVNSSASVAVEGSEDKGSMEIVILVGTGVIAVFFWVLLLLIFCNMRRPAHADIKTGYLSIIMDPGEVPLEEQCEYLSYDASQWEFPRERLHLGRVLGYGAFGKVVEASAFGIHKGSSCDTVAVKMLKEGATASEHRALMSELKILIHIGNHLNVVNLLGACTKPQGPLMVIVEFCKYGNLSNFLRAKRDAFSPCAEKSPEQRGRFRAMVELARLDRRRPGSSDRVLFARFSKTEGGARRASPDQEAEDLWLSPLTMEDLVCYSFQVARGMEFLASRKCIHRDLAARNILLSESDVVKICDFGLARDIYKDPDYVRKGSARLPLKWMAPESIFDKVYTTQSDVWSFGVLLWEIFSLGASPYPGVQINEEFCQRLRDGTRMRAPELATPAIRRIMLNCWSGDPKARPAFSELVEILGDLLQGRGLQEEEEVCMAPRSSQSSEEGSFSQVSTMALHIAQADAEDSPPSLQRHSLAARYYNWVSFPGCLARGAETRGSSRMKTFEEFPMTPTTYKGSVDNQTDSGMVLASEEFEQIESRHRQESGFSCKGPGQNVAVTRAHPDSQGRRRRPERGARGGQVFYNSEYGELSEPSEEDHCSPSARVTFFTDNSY

B1: CNTFR extracellular domain (receptor, human, UniProt P26992 23-342, looked up)
chain: QRHSPQEAPHVQYERLGSDVTLPCGTANWDAAVTWRVNGTDLAPDLLNGSQLVLHGLELGHSGLYACFHRDSWHLRHQVLLHVGLPPREPVLSCRSNTYPKGFYCSWHLPTPTYIPNTFNVTVLHGSKIMVCEKDPALKNRCHIRYMHLFSTIKYKVSISVSNALGHNATAITFDEFTIVKPDPPENVVARPVPSNPRRLEVTWQTPSTWPDPESFPLKFFLRYRPLILDQWQHVELSDGTAHTITDAYAGKEYIIQVAAKDNEIGTWSDWSVAAHATPWTEEPRHLTTEAQAAETTTSTTSSLAPPPTTKICDPGELGS
notes: extracellular domain; Soluble query, streptavidin tetramer
binding result [1]: binds

Binder: B4
binding result (IL6R expressed on cells): binds | binding result (FLT4 expressed on cells): binds

B7: LILRB5 extracellular domain (receptor, human, UniProt O75023 24-458, looked up)
chain: GTLPKPTLWAEPASVIARGKPVTLWCQGPLETEEYRLDKEGLPWARKRQNPLEPGAKAKFHIPSTVYDSAGRYRCYYETPAGWSEPSDPLELVATGFYAEPTLLALPSPVVASGGNVTLQCDTLDGLLTFVLVEEEQKLPRTLYSQKLPKGPSQALFPVGPVTPSCRWRFRCYYYYRKNPQVWSNPSDLLEILVPGVSRKPSLLIPQGSVVARGGSLTLQCRSDVGYDIFVLYKEGEHDLVQGSGQQPQAGLSQANFTLGPVSRSHGGQYRCYGAHNLSPRWSAPSDPLDILIAGLIPDIPALSVQPGPKVASGENVTLLCQSWHQIDTFFLTKEGAAHPPLCLKSKYQSYRHQAEFSMSPVTSAQGGTYRCYSAIRSYPYLLSSPSYPQELVVSGPSGDPSLSPTGSTPTPGPEDQPLTPTGLDPQSGLGRHLG
notes: extracellular domain
binding result (LDLR expressed on cells): binds

More lines, now with the values ahead:

binding result [2]: binds
B2: LILRB5 expressed on cells (receptor, human, UniProt O75023 24-590, looked up)
chain: GTLPKPTLWAEPASVIARGKPVTLWCQGPLETEEYRLDKEGLPWARKRQNPLEPGAKAKFHIPSTVYDSAGRYRCYYETPAGWSEPSDPLELVATGFYAEPTLLALPSPVVASGGNVTLQCDTLDGLLTFVLVEEEQKLPRTLYSQKLPKGPSQALFPVGPVTPSCRWRFRCYYYYRKNPQVWSNPSDLLEILVPGVSRKPSLLIPQGSVVARGGSLTLQCRSDVGYDIFVLYKEGEHDLVQGSGQQPQAGLSQANFTLGPVSRSHGGQYRCYGAHNLSPRWSAPSDPLDILIAGLIPDIPALSVQPGPKVASGENVTLLCQSWHQIDTFFLTKEGAAHPPLCLKSKYQSYRHQAEFSMSPVTSAQGGTYRCYSAIRSYPYLLSSPSYPQELVVSGPSGDPSLSPTGSTPTPGPEDQPLTPTGLDPQSGLGRHLGVVTGVSVAFVLLLFLLLFLLLRHRHQSKHRTSAHFYRPAGAAGPEPKDQGLQKRASPVADIQEEILNAAVKDTQPKDGVEMDAPAAASEAPQDVTYAQLHSLTLRREATEPPPSQEREPPAEPSIYAPLAIH
notes: whole, on cells

Kd [3]: 3.3 µM | Kd [4]: 210 nM
B3: podoplanin (PDPN) extracellular domain (receptor, human, UniProt Q86YL7 23-131, looked up)
chain: ASTGQPEDDTETTGLEGGVAMPGAEDDVVTPGTSEDRYKSGLTTLVATSVNSVTGIRIEDLPTSESTVHAQEQSPSATASNVATSHSTEKVDGDTQTTVEKDGLSTVTL
modifications: biotinylated Avi tag in the tetramer
notes: extracellular domain; Streptavidin-APC tetramer in the screens; monomeric Avi-tagged ectodomain for KD; also called gp38; Aggrus

binding result [5]: binds
B5: EDAR expressed on cells (receptor, human, UniProt Q9UNE0 27-448, looked up)
chain: EYSNCGENEYYNQTTGLCQECPPCGPGEEPYLSCGYGTKDEDYGCVPCPAEKFSKGGYQICRRHKDCEGFFRATVLTPGDMENDAECGPCLPGYYMLENRPRNIYGMVCYSCLLAPPNTKECVGATSGASANFPGTSGSSTLSPFQHAHKELSGQGHLATALIIAMSTIFIMAIAIVLIIMFYILKTKPSAPACCTSHPGKSVEAQVSKDEEKKEAPDNVVMFSEKDEFEKLTATPAKPTKSENDASSENEQLLSRSVDSDEEPAPDKQGSPELCLLSLVHLAREKSATSNKSAGIQSRRKKILDVYANVCGVVEGLSPTELPFDCLEKTSRMLSSTYNSEKAVVKTWRHLAESFGLKRDEIGGMTDGMQLFDRISTAGYSIPELLTKLVQIERLDAVESLCADILEWAGVVPPASQPHAAS
notes: whole, on cells; C-terminally tagged in the co-IP; also called EDAR-HA

binding result [6]: binds | binding result (EPHA5): no binding (tested: 250 nM)
B6: LILRA3 (ECD-Fc fusion protein) (Fc fusion, human, UniProt Q8N6C8 24-439, looked up)
chain: GPLPKPTLWAEPGSVITQGSPVTLRCQGSLETQEYHLYREKKTALWITRIPQELVKKGQFPILSITWEHAGRYCCIYGSHTAGLSESSDPLELVVTGAYSKPTLSALPSPVVTSGGNVTIQCDSQVAFDGFILCKEGEDEHPQCLNSHSHARGSSRAIFSVGPVSPSRRWSYRCYGYDSRAPYVWSLPSDLLGLLVPGVSKKPSLSVQPGPVVAPGEKLTFQCGSDAGYDRFVLYKEWGRDFLQRPGRQPQAGLSQANFTLGPVSRSYGGQYTCSGAYNLSSEWSAPSDPLDILITGQIRARPFLSVRPGPTVASGENVTLLCQSQGGMHTFLLTKEGAADSPLRLKSKRQSHKYQAEFPMSPVTSAHAGTYRCYGSLSSNPYLLTHPSDPLELVVSGAAETLSPPQNKSDSKAGE
notes: extracellular domain; Immobilized on the SPR chip
